Test results published in the Human Domainome abundance scans (Beltran et al. 2025).
± gives the uncertainty stated by the source.

B1: Protein maelstrom homolog, residues 3 to 71; numbered along this chain, Q96JY0 (parent)
chain: NRKASRNAYYFFVQEKIPELRRRGLPVARVADAIPYCSSDWALLREEEKEKYAEMAREWRAAQGKDPGP

Variants of: B1
Experiment: abundance fitness (aPCA) (normalised: wild type 0, dead -1); higher = more abundant; growth selection in yeast, the domain comes from the species named
Settings: Homo sapiens

Variant	abundance fitness
NRKASRNAYYFFVQEKIPERRRRGLPVARVADAIPYCSSDWALLREEEKEKYAEMAREWRAAQGKDPGP [L20R]	-0.959 ± 0.081
NRKASRNAYYFFVQEKIPEHRRRGLPVARVADAIPYCSSDWALLREEEKEKYAEMAREWRAAQGKDPGP [L20H]	-0.953 ± 0.26
NRKASRNAYYFFVQEKIPEDRRRGLPVARVADAIPYCSSDWALLREEEKEKYAEMAREWRAAQGKDPGP [L20D]	-0.772 ± 0.16
NRKASRNAYYFFVQEKIPETRRRGLPVARVADAIPYCSSDWALLREEEKEKYAEMAREWRAAQGKDPGP [L20T]	-0.62 ± 0.11
NRKASRNAYYFFVQEKIPEKRRRGLPVARVADAIPYCSSDWALLREEEKEKYAEMAREWRAAQGKDPGP [L20K]	-0.88 ± 0.16
NRKASRNAYYFFVQEKIPEPRRRGLPVARVADAIPYCSSDWALLREEEKEKYAEMAREWRAAQGKDPGP [L20P]	-0.989 ± 0.14
NRKASRNAYYFFVQEKIPEARRRGLPVARVADAIPYCSSDWALLREEEKEKYAEMAREWRAAQGKDPGP [L20A]	-1.1 ± 0.12
NRKASRNAYYFFVQEYIPELRRRGLPVARVADAIPYCSSDWALLREEEKEKYAEMAREWRAAQGKDPGP [K16Y]	-0.697 ± 0.46
NRKASRNAYYFFVQEVIPELRRRGLPVARVADAIPYCSSDWALLREEEKEKYAEMAREWRAAQGKDPGP [K16V]	-0.41 ± 0.086
NRKASRNAYYFFVQEWIPELRRRGLPVARVADAIPYCSSDWALLREEEKEKYAEMAREWRAAQGKDPGP [K16W]	-0.819 ± 0.18
NRKASRNAYYFFVQESIPELRRRGLPVARVADAIPYCSSDWALLREEEKEKYAEMAREWRAAQGKDPGP [K16S]	-0.141 ± 0.088
NRKASRNAYYFFVQETIPELRRRGLPVARVADAIPYCSSDWALLREEEKEKYAEMAREWRAAQGKDPGP [K16T]	-0.375 ± 0.13
NRKASRNAYYFFVQEKIPELLRRGLPVARVADAIPYCSSDWALLREEEKEKYAEMAREWRAAQGKDPGP [R21L]	-0.024 ± 0.24
NRKASRNAYYFFVQEKIPELGRRGLPVARVADAIPYCSSDWALLREEEKEKYAEMAREWRAAQGKDPGP [R21G]	0.058 ± 0.47
NRKASRNAYYFFVQEKIPELERRGLPVARVADAIPYCSSDWALLREEEKEKYAEMAREWRAAQGKDPGP [R21E]	-0.496 ± 0.29
NRKASRNAYYFFVQEKNPELRRRGLPVARVADAIPYCSSDWALLREEEKEKYAEMAREWRAAQGKDPGP [I17N]	-0.797 ± 0.21
NRKASRNAYYFFVQEKAPELRRRGLPVARVADAIPYCSSDWALLREEEKEKYAEMAREWRAAQGKDPGP [I17A]	-0.467 ± 0.084
NRKASRNAYYFFVQEKLPELRRRGLPVARVADAIPYCSSDWALLREEEKEKYAEMAREWRAAQGKDPGP [I17L]	-0.18 ± 0.075
NRKASRNAYYFFVQEKPPELRRRGLPVARVADAIPYCSSDWALLREEEKEKYAEMAREWRAAQGKDPGP [I17P]	-0.755 ± 0.15
NRKASRNAYYFFVQEKFPELRRRGLPVARVADAIPYCSSDWALLREEEKEKYAEMAREWRAAQGKDPGP [I17F]	-0.323 ± 0.17

Variant	abundance fitness
NRKASRNAYYFFVQEKQPELRRRGLPVARVADAIPYCSSDWALLREEEKEKYAEMAREWRAAQGKDPGP [I17Q]	-0.961 ± 0.2
NRKASRNAYYFFVQEKCPELRRRGLPVARVADAIPYCSSDWALLREEEKEKYAEMAREWRAAQGKDPGP [I17C]	-0.771 ± 0.23
NRKASRNAYYFFVQEKGPELRRRGLPVARVADAIPYCSSDWALLREEEKEKYAEMAREWRAAQGKDPGP [I17G]	-0.503 ± 0.064
NRKASRNAYYFFVQEKVPELRRRGLPVARVADAIPYCSSDWALLREEEKEKYAEMAREWRAAQGKDPGP [I17V]	-0.166 ± 0.055
NRKASRNAYYFFVQEKKPELRRRGLPVARVADAIPYCSSDWALLREEEKEKYAEMAREWRAAQGKDPGP [I17K]	-0.687 ± 0.11
NRKASRNAYYFFVQEKRPELRRRGLPVARVADAIPYCSSDWALLREEEKEKYAEMAREWRAAQGKDPGP [I17R]	-0.501 ± 0.062
NRKASRNAYYFFVQEKWPELRRRGLPVARVADAIPYCSSDWALLREEEKEKYAEMAREWRAAQGKDPGP [I17W]	-0.264 ± 0.07
NRKASRNAYYFFVQEKMPELRRRGLPVARVADAIPYCSSDWALLREEEKEKYAEMAREWRAAQGKDPGP [I17M]	-0.241 ± 0.075
NRKASRNAYYFFVQEKHPELRRRGLPVARVADAIPYCSSDWALLREEEKEKYAEMAREWRAAQGKDPGP [I17H]	-0.832 ± 0.24
NRKASRNAYYFFVQEKYPELRRRGLPVARVADAIPYCSSDWALLREEEKEKYAEMAREWRAAQGKDPGP [I17Y]	-0.818 ± 0.21
NRKASRNAYYFFVQEKIPELRGRGLPVARVADAIPYCSSDWALLREEEKEKYAEMAREWRAAQGKDPGP [R22G]	-0.14 ± 0.073
NRKASRNAYYFFVQEKIPELRKRGLPVARVADAIPYCSSDWALLREEEKEKYAEMAREWRAAQGKDPGP [R22K]	0.162 ± 0.1
NRKASRNAYYFFVQEKIPELRDRGLPVARVADAIPYCSSDWALLREEEKEKYAEMAREWRAAQGKDPGP [R22D]	-0.079 ± 0.12
NRKASRNAYYFFVQEKIPELRIRGLPVARVADAIPYCSSDWALLREEEKEKYAEMAREWRAAQGKDPGP [R22I]	-0.732 ± 0.23
NRKASRNAYYFFVQEKIPELRARGLPVARVADAIPYCSSDWALLREEEKEKYAEMAREWRAAQGKDPGP [R22A]	0.006 ± 0.063
NRKASRNAYYFFVQEKIPELRHRGLPVARVADAIPYCSSDWALLREEEKEKYAEMAREWRAAQGKDPGP [R22H]	-0.036 ± 0.15
NRKASRNAYYFFVQEKIPELRLRGLPVARVADAIPYCSSDWALLREEEKEKYAEMAREWRAAQGKDPGP [R22L]	-0.11 ± 0.065
NRKASRNAYYFFVQEKIPELRMRGLPVARVADAIPYCSSDWALLREEEKEKYAEMAREWRAAQGKDPGP [R22M]	-0.261 ± 0.085
NRKASRNAYYFFVQEKIPELRCRGLPVARVADAIPYCSSDWALLREEEKEKYAEMAREWRAAQGKDPGP [R22C]	-0.791 ± 0.22
